{"source": "paper PMC3295573", "about": "(2012)", "binders": {"B1": {"name": "Rab22 (FL) (natural protein)", "chain": "MALRELKVCLLGDTGVGKSSIVWRFVEDSFDPNINPTIGASFMTKTVQYQNELHKFLIWDTAGQERFRALAPMYYRGSAAAIIVYDITKEETFSTLKNWVKELRQHGPPNIVVAIAGNKCDLIDVREVMERDAKDYADSIHAIFVETSAKNAININELFIEISRRIPSTDANLPSGGKGFKLRRQPSEPKRSCC"}}, "biological_target": "T1, LidA(FL), untagged (Legionella pneumophila strain Corby)", "T1 chain": "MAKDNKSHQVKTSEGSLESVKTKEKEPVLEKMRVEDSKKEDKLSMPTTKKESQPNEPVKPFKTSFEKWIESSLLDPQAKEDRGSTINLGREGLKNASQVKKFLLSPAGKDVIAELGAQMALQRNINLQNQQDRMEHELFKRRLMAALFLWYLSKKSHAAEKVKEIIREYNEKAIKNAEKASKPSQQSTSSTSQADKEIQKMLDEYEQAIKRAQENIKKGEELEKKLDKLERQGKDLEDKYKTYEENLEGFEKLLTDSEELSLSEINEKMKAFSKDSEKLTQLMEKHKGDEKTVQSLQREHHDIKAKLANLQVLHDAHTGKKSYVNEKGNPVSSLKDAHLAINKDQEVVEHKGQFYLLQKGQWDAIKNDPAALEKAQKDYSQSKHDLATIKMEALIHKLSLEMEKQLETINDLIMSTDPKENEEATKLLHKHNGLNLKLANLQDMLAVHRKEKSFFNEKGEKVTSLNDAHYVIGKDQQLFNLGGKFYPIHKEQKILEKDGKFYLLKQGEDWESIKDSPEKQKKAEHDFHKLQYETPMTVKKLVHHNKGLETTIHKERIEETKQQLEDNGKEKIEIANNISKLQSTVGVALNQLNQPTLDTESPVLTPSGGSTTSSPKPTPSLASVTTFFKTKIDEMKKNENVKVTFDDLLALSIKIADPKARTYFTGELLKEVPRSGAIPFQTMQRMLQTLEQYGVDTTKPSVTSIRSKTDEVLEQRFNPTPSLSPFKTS", "experiment": "ITC"}
{"binder": "B1", "values": [{"measurement": "Kd", "value": 200, "unit": "nM"}]}
